Positions count from the first letter of the chain named. Numbered stars: 1 amine (or outer) side, 2 acyl side, 3 side chain; on linkers, the order of the positions; unused ones are H or OH. Square brackets hold non-standard residues; d marks the D form. Side chains are listed from the residue outwards. Ends that are not written are not given here. * marks the point of attachment. C20 diacid = O=C(O)CCCCCCCCCCCCCCCCCCC(=O)*; γGlu = O=C(O)[C@H](CCC(=O)[*:2])N[*:1]; AEEA = NCCOCCOCC(=O)O; Aib = CC(C)(N)C(=O)O
T1: human GIP receptor (human, UniProt P48546 22-466)
T1 construct: whole, on cells; Used as crude membranes of stably transfected CHO cells; also called hGIPR
T1 sequence (looked up): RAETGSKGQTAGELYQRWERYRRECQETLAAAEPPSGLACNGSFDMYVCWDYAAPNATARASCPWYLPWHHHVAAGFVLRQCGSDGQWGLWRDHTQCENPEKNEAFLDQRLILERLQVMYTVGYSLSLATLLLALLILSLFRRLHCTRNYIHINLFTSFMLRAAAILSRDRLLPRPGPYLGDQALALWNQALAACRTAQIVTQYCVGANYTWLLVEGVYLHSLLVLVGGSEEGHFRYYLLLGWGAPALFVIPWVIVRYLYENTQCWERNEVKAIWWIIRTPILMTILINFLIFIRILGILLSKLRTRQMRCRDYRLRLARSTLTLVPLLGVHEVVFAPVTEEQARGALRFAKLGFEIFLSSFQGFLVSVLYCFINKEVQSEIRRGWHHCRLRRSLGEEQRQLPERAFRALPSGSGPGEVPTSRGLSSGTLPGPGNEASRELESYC

B1: Example 87 (peptide)
peptide: YXEGTFTSDYSILLDKKAQXAFIEYLIEGGPSSGAPPPS
modifications: αMePro2; K17((2-[2-(2-Amino-ethoxy)-ethoxy]-acetyl)2-(γ-Glu)-CO-(CH2)18-CO2H); Aib20; C-terminal NH2
B2: Example 108 (peptide)
peptide: B1 peptide
modifications: Aib2; K17((2-[2-(2-Amino-ethoxy)-ethoxy]-acetyl)-AOC-(γ-Glu)-CO-(CH2)18-CO2H); Aib20; C-terminal NH2
B3: Example 135 (peptide)
peptide: H[Aib]NGTFTSDYSILLDKK([AEEA-AEEA-γGlu-C20 diacid])AQ[Aib]AFIEYLIEGGPSSGAPPPS-NH2
modifications: N-terminus assumed
SMILES: CC[C@H](C)[C@H](NC(=O)[C@H](CC(C)C)NC(=O)[C@H](Cc1ccc(O)cc1)NC(=O)[C@H](CCC(=O)O)NC(=O)[C@@H](NC(=O)[C@H](Cc1ccccc1)NC(=O)[C@H](C)NC(=O)C(C)(C)NC(=O)[C@H](CCC(N)=O)NC(=O)[C@H](C)NC(=O)[C@H](CCCCNC(=O)COCCOCCNC(=O)COCCOCCNC(=O)CC[C@H](NC(=O)CCCCCCCCCCCCCCCCCCC(=O)O)C(=O)O)NC(=O)[C@H](CCCCN)NC(=O)[C@H](CC(=O)O)NC(=O)[C@H](CC(C)C)NC(=O)[C@H](CC(C)C)NC(=O)[C@@H](NC(=O)[C@H](CO)NC(=O)[C@H](Cc1ccc(O)cc1)NC(=O)[C@H](CC(=O)O)NC(=O)[C@H](CO)NC(=O)[C@@H](NC(=O)[C@H](Cc1ccccc1)NC(=O)[C@@H](NC(=O)CNC(=O)[C@H](CC(N)=O)NC(=O)C(C)(C)NC(=O)[C@@H](N)Cc1c[nH]cn1)[C@@H](C)O)[C@@H](C)O)[C@@H](C)CC)[C@@H](C)CC)C(=O)N[C@@H](CCC(=O)O)C(=O)NCC(=O)NCC(=O)N1CCC[C@H]1C(=O)N[C@@H](CO)C(=O)N[C@@H](CO)C(=O)NCC(=O)N[C@@H](C)C(=O)N1CCC[C@H]1C(=O)N1CCC[C@H]1C(=O)N1CCC[C@H]1C(=O)N[C@@H](CO)C(N)=O
B4: Example 110 (peptide)
peptide: B1 peptide
modifications: Aib2; K17((2-[2-(2-Amino-ethoxy)-ethoxy]-acetyl)-(γ-Glu)-(Trx)-CO-(CH2)18-CO2H); Aib20; C-terminal NH2
B5: Example 109 (peptide)
peptide: B1 peptide
modifications: Aib2; K17(AOC-(2-[2-(2-Amino-ethoxy)-ethoxy]-acetyl)-(γ-Glu)-CO-(CH2)18-CO2H); Aib20; C-terminal NH2
B6: Example 90 (peptide)
peptide: Y[Aib]NGTFTSDYSILLDKK([AEEA-AEEA-γGlu-C20 diacid])AQ[Aib]AFIEYLIEGGPSSGAPPPS-NH2
modifications: N-terminus assumed
SMILES: CC[C@H](C)[C@H](NC(=O)[C@H](CC(C)C)NC(=O)[C@H](Cc1ccc(O)cc1)NC(=O)[C@H](CCC(=O)O)NC(=O)[C@@H](NC(=O)[C@H](Cc1ccccc1)NC(=O)[C@H](C)NC(=O)C(C)(C)NC(=O)[C@H](CCC(N)=O)NC(=O)[C@H](C)NC(=O)[C@H](CCCCNC(=O)COCCOCCNC(=O)COCCOCCNC(=O)CC[C@H](NC(=O)CCCCCCCCCCCCCCCCCCC(=O)O)C(=O)O)NC(=O)[C@H](CCCCN)NC(=O)[C@H](CC(=O)O)NC(=O)[C@H](CC(C)C)NC(=O)[C@H](CC(C)C)NC(=O)[C@@H](NC(=O)[C@H](CO)NC(=O)[C@H](Cc1ccc(O)cc1)NC(=O)[C@H](CC(=O)O)NC(=O)[C@H](CO)NC(=O)[C@@H](NC(=O)[C@H](Cc1ccccc1)NC(=O)[C@@H](NC(=O)CNC(=O)[C@H](CC(N)=O)NC(=O)C(C)(C)NC(=O)[C@@H](N)Cc1ccc(O)cc1)[C@@H](C)O)[C@@H](C)O)[C@@H](C)CC)[C@@H](C)CC)C(=O)N[C@@H](CCC(=O)O)C(=O)NCC(=O)NCC(=O)N1CCC[C@H]1C(=O)N[C@@H](CO)C(=O)N[C@@H](CO)C(=O)NCC(=O)N[C@@H](C)C(=O)N1CCC[C@H]1C(=O)N1CCC[C@H]1C(=O)N1CCC[C@H]1C(=O)N[C@@H](CO)C(N)=O
B7: Example 51 (peptide)
peptide: Y[Aib]EGTFTSDYSILLDKK([AEEA-AEEA-γGlu-C20 diacid])AQ[Aib]AFIEYLIEGG-NH2
modifications: N-terminus assumed
SMILES: CC[C@H](C)[C@H](NC(=O)[C@H](CC(C)C)NC(=O)[C@H](Cc1ccc(O)cc1)NC(=O)[C@H](CCC(=O)O)NC(=O)[C@@H](NC(=O)[C@H](Cc1ccccc1)NC(=O)[C@H](C)NC(=O)C(C)(C)NC(=O)[C@H](CCC(N)=O)NC(=O)[C@H](C)NC(=O)[C@H](CCCCNC(=O)COCCOCCNC(=O)COCCOCCNC(=O)CC[C@H](NC(=O)CCCCCCCCCCCCCCCCCCC(=O)O)C(=O)O)NC(=O)[C@H](CCCCN)NC(=O)[C@H](CC(=O)O)NC(=O)[C@H](CC(C)C)NC(=O)[C@H](CC(C)C)NC(=O)[C@@H](NC(=O)[C@H](CO)NC(=O)[C@H](Cc1ccc(O)cc1)NC(=O)[C@H](CC(=O)O)NC(=O)[C@H](CO)NC(=O)[C@@H](NC(=O)[C@H](Cc1ccccc1)NC(=O)[C@@H](NC(=O)CNC(=O)[C@H](CCC(=O)O)NC(=O)C(C)(C)NC(=O)[C@@H](N)Cc1ccc(O)cc1)[C@@H](C)O)[C@@H](C)O)[C@@H](C)CC)[C@@H](C)CC)C(=O)N[C@@H](CCC(=O)O)C(=O)NCC(=O)NCC(N)=O
B8: Example 49 (peptide)
peptide: Y[Aib]EGTFTSDYSILLDKIAQ[Aib]AFIEYLIEGGPSSGAPPPSK([AEEA-AEEA-γGlu-C20 diacid])-NH2
modifications: N-terminus assumed
SMILES: CC[C@H](C)[C@H](NC(=O)[C@H](CCCCN)NC(=O)[C@H](CC(=O)O)NC(=O)[C@H](CC(C)C)NC(=O)[C@H](CC(C)C)NC(=O)[C@@H](NC(=O)[C@H](CO)NC(=O)[C@H](Cc1ccc(O)cc1)NC(=O)[C@H](CC(=O)O)NC(=O)[C@H](CO)NC(=O)[C@@H](NC(=O)[C@H](Cc1ccccc1)NC(=O)[C@@H](NC(=O)CNC(=O)[C@H](CCC(=O)O)NC(=O)C(C)(C)NC(=O)[C@@H](N)Cc1ccc(O)cc1)[C@@H](C)O)[C@@H](C)O)[C@@H](C)CC)C(=O)N[C@@H](C)C(=O)N[C@@H](CCC(N)=O)C(=O)NC(C)(C)C(=O)N[C@@H](C)C(=O)N[C@@H](Cc1ccccc1)C(=O)N[C@H](C(=O)N[C@@H](CCC(=O)O)C(=O)N[C@@H](Cc1ccc(O)cc1)C(=O)N[C@@H](CC(C)C)C(=O)N[C@H](C(=O)N[C@@H](CCC(=O)O)C(=O)NCC(=O)NCC(=O)N1CCC[C@H]1C(=O)N[C@@H](CO)C(=O)N[C@@H](CO)C(=O)NCC(=O)N[C@@H](C)C(=O)N1CCC[C@H]1C(=O)N1CCC[C@H]1C(=O)N1CCC[C@H]1C(=O)N[C@@H](CO)C(=O)N[C@@H](CCCCNC(=O)COCCOCCNC(=O)COCCOCCNC(=O)CC[C@H](NC(=O)CCCCCCCCCCCCCCCCCCC(=O)O)C(=O)O)C(N)=O)[C@@H](C)CC)[C@@H](C)CC
B9: Example 50 (peptide)
peptide: Y[Aib]EGTFTSDYSILLDKK([AEEA-AEEA-γGlu-C20 diacid])AQ[Aib]AFIEYLIEGGPSSG-NH2
modifications: N-terminus assumed
SMILES: CC[C@H](C)[C@H](NC(=O)[C@H](CC(C)C)NC(=O)[C@H](Cc1ccc(O)cc1)NC(=O)[C@H](CCC(=O)O)NC(=O)[C@@H](NC(=O)[C@H](Cc1ccccc1)NC(=O)[C@H](C)NC(=O)C(C)(C)NC(=O)[C@H](CCC(N)=O)NC(=O)[C@H](C)NC(=O)[C@H](CCCCNC(=O)COCCOCCNC(=O)COCCOCCNC(=O)CC[C@H](NC(=O)CCCCCCCCCCCCCCCCCCC(=O)O)C(=O)O)NC(=O)[C@H](CCCCN)NC(=O)[C@H](CC(=O)O)NC(=O)[C@H](CC(C)C)NC(=O)[C@H](CC(C)C)NC(=O)[C@@H](NC(=O)[C@H](CO)NC(=O)[C@H](Cc1ccc(O)cc1)NC(=O)[C@H](CC(=O)O)NC(=O)[C@H](CO)NC(=O)[C@@H](NC(=O)[C@H](Cc1ccccc1)NC(=O)[C@@H](NC(=O)CNC(=O)[C@H](CCC(=O)O)NC(=O)C(C)(C)NC(=O)[C@@H](N)Cc1ccc(O)cc1)[C@@H](C)O)[C@@H](C)O)[C@@H](C)CC)[C@@H](C)CC)C(=O)N[C@@H](CCC(=O)O)C(=O)NCC(=O)NCC(=O)N1CCC[C@H]1C(=O)N[C@@H](CO)C(=O)N[C@@H](CO)C(=O)NCC(N)=O
B10: Example 1 (peptide)
peptide: YXEGTXTSDYSIXLDEKAQXEFIXYLIEGGPSSGAPPPS
modifications: Aib2; αMeF(2F)6; αMeL13; K17((2-[2-(2-Amino-ethoxy)-ethoxy]-acetyl)2-(γ-Glu)-CO-(CH2)18-CO2H); Aib20; D-Glu24; C-terminal NH2
B11: Example 2 (peptide)
peptide: B10 peptide with E16X
modifications: Aib2; αMeF(2F)6; αMeL13; Orn16; K17((2-[2-(2-Amino-ethoxy)-ethoxy]-acetyl)2-(γ-Glu)-CO-(CH2)16-CO2H); Aib20; D-Glu24; C-terminal NH2
B12: Example 183 (peptide)
peptide: B10 peptide with Y10L
modifications: not printed (the compound name of this Example is missing from the table of Examples 6-287)
B13: Example 191 (peptide)
peptide: B10 peptide with Y10V
modifications: Aib2; αMeF(2F)6; αMeL13; K17((2-[2-(2-Amino-ethoxy)-ethoxy]-acetyl)2-(γ-Glu)-CO-(CH2)18-CO2H); Aib20; D-Glu24; C-terminal NH2
B14: Example 211 (peptide)
peptide: B10 peptide with E16K
modifications: Aib2; αMeF(2F)6; αMeL13; K17((2-[2-(2-Amino-ethoxy)-ethoxy]-acetyl)-(γ-Glu)-(2-[2-(2-Amino-ethoxy)-ethoxy]-acetyl)-CO-(CH2)18-CO2H); Aib20; D-Glu24; C-terminal NH2

Assays:
human GIP receptor = target: T1, human GIP receptor; test: SPA, [125I]-GIP displacement, hGIPR membranes
human glucagon receptor = target: T2, human glucagon receptor (human, UniProt P47871 26-477); test: SPA, [125I]-Gcg displacement, hGcgR membranes
T2 construct: whole, on cells; Used as crude membranes of stably transfected HEK293 cells; also called hGcgR; hGLcgR

human GLP-1 receptor = target: T3, human GLP-1 receptor (human, UniProt P43220 24-463); test: SPA, [125I]-GLP-1 displacement, hGLP-1R membranes
T3 construct: whole, on cells; Used as crude membranes of stably transfected HEK293 cells; also called hGLP1R; hGLP-1R

T2 sequence (P47871 26-477): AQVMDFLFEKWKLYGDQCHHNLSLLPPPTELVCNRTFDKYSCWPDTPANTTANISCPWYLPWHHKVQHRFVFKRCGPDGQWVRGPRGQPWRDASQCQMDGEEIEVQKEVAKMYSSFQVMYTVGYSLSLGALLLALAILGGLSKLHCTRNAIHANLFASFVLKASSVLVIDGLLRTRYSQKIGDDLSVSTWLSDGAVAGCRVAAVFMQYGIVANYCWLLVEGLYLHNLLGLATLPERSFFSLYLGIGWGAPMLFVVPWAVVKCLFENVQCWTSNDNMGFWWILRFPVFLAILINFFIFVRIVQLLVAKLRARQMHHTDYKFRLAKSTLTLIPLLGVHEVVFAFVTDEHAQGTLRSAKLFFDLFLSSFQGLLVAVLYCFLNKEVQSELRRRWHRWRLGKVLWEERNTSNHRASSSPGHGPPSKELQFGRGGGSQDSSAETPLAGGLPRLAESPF

Binder	Ki (human GIP receptor)	Ki (human glucagon receptor)	Ki (human GLP-1 receptor)
B1	0.034 nM	278 nM	1.79 nM
B2	0.0732 nM	171 nM	3 nM
B3	0.161 nM	454 nM	3.01 nM
B4	0.0395 nM	73.9 nM	4.38 nM
B5	0.0279 nM	43.1 nM	1.34 nM
B6	0.0472 nM	245 nM	4.76 nM
B7	0.062 nM	195 nM	5.62 nM
B8	0.087 nM	236 nM	12.3 nM
B9	0.0568 nM	220 nM	4.71 nM
B10	0.0546 nM	207 nM	6.67 nM
B11	0.06 nM	361 nM	2.35 nM
B12	0.0869 nM	304 nM	4.11 nM
B13	0.144 nM	348 nM	4.52 nM
B14	0.0243 nM	131 nM	2.64 nM
